Reference: publication PMC2756588

T1: Hof1, Q05080
T1 sequence (Q05080 590-669, looked up): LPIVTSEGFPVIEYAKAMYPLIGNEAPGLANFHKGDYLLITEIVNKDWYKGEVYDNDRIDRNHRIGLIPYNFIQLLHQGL

T2: Bud14, P27637
T2 sequence (P27637 247-328, looked up): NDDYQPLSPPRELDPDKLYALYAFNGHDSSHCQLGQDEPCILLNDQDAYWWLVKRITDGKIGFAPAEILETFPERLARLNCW

T3: Nbp2, Q12163
T3 sequence (Q12163 103-180, looked up): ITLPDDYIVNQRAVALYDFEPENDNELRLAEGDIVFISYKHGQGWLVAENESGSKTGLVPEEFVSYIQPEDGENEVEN

T4: Sla1-2, P32790
T4 sequence (P32790 60-140, looked up): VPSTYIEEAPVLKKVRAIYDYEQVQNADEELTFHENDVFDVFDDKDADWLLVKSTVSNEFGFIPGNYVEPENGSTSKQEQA

T5: Bbc1, P47068
T5 sequence (P47068 1-78, looked up): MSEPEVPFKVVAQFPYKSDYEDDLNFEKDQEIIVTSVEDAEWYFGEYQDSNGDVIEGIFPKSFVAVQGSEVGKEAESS

T6: Abp1, P15891
T6 sequence (P15891 535-592, looked up): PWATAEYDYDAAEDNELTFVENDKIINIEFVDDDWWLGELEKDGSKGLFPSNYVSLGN

T7: Cyk3, Q07533
T7 sequence (Q07533 1-83, looked up): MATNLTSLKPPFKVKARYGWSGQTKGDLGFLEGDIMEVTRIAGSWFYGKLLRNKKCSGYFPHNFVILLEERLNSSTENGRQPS

T8: Boi2, P39969
T8 sequence (P39969 32-116, looked up): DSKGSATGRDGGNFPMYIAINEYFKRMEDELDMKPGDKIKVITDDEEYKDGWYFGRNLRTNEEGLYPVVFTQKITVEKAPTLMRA

T9: Lsb3, P43603
T9 sequence (P43603 385-451, looked up): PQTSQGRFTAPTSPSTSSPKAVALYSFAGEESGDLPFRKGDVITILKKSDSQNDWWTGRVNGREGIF

T10: Fus1, P11710
T10 sequence (P11710 432-512, looked up): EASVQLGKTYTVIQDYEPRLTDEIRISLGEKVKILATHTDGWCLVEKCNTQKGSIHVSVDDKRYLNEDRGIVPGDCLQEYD

T11: Hse1, P38753
T11 sequence (P38753 208-285, looked up): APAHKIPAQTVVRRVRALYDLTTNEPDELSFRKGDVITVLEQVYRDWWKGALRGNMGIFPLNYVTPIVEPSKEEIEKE

T12: Sla1-3, P32790
T12 sequence (P32790 344-424, looked up): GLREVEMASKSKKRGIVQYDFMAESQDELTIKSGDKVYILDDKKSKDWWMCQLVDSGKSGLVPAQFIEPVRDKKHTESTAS

T13: Pex13, P80667
T13 sequence (P80667 295-386, looked up): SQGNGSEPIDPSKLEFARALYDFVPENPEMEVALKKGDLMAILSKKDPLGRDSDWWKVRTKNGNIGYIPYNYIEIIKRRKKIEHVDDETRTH

T14: Bzz1-2, P38822
T14 sequence (P38822 568-633, looked up): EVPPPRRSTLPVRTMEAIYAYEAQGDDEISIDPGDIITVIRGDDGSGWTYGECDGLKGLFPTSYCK

T15: Cdc25, P04821
T15 sequence (P04821 50-136, looked up): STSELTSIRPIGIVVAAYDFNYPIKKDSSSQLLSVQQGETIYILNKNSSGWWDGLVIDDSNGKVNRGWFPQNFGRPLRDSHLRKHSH

T16: Bzz1-1, P38822
T16 sequence (P38822 478-572, looked up): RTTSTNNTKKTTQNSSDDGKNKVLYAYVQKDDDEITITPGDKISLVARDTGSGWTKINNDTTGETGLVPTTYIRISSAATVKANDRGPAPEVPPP

T17: Lsb4, P32793
T17 sequence (P32793 402-468, looked up): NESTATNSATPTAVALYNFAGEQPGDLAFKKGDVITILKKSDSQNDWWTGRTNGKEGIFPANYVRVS

T18: Pin3, Q06449
T18 sequence (Q06449 53-122, looked up): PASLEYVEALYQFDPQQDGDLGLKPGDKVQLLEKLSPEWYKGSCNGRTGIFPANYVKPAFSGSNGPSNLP

T19: Boi1, P38041
T19 sequence (P38041 1-86, looked up): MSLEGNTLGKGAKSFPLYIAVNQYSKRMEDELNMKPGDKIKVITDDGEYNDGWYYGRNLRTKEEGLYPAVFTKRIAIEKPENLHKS

T20: Lsb1, P53281
T20 sequence (P53281 45-122, looked up): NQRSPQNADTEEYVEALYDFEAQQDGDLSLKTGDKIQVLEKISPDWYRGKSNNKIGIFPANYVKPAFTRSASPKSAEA

T21: Myo5, Q04439
T21 sequence (Q04439 1072-1160, looked up): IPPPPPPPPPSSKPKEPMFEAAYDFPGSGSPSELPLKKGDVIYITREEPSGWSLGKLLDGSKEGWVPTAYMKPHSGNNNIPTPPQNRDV


Columns and labels:
Experiment in all cases: SPOT array
[1] = biological target: Myo3, P36006; conditions: median of control spots 468
[2] = biological target: GST; conditions: median of control spots 978
[3] = biological target: T1, Hof1, Q05080; conditions: median of control spots 4086
[4] = biological target: T2, Bud14, P27637; conditions: median of control spots 956
[5] = biological target: T3, Nbp2, Q12163; conditions: median of control spots 357
[6] = biological target: T4, Sla1-2, P32790; conditions: median of control spots 712
[7] = biological target: T5, Bbc1, P47068; conditions: median of control spots 796
[8] = biological target: T6, Abp1, P15891; conditions: median of control spots 935
[9] = biological target: T7, Cyk3, Q07533; conditions: median of control spots 1451
[10] = biological target: T8, Boi2, P39969; conditions: median of control spots 1161
[11] = biological target: T9, Lsb3, P43603; conditions: median of control spots 406
[12] = biological target: T10, Fus1, P11710; conditions: median of control spots 1200
[13] = biological target: Bem1-1, P29366; conditions: median of control spots 4282
[14] = biological target: Sho1, P40073; conditions: median of control spots 1148
[15] = biological target: T11, Hse1, P38753; conditions: median of control spots 1727
[16] = biological target: T12, Sla1-3, P32790; conditions: median of control spots 5475
[17] = biological target: Rvs167, P39743; conditions: median of control spots 2707
[18] = biological target: T13, Pex13, P80667; conditions: median of control spots 1341
[19] = biological target: T14, Bzz1-2, P38822; conditions: median of control spots 4538
[20] = biological target: T15, Cdc25, P04821; conditions: median of control spots 969
[21] = biological target: T16, Bzz1-1, P38822; conditions: median of control spots 4446
[22] = biological target: T17, Lsb4, P32793; conditions: median of control spots 397
[23] = biological target: T18, Pin3, Q06449; conditions: median of control spots 2171
[24] = biological target: T19, Boi1, P38041; conditions: median of control spots 1162
[25] = biological target: Bem1-2, P29366; conditions: median of control spots 4347
[26] = biological target: T20, Lsb1, P53281; conditions: median of control spots 388
[27] = biological target: T21, Myo5, Q04439; conditions: median of control spots 471

Sequence of Bem1-2, P29366 (P29366 139-227): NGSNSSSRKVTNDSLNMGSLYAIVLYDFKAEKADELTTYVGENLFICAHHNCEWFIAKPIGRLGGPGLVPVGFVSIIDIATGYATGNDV
Sequence of Sho1, P40073 (P40073 287-367): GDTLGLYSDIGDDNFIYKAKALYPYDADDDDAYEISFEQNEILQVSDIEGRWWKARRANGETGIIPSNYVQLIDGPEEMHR
Sequence of Rvs167, P39743 (P39743 419-482): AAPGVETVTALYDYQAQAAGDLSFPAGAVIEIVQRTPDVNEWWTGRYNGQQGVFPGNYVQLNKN
Sequence of Bem1-1, P29366 (P29366 55-141): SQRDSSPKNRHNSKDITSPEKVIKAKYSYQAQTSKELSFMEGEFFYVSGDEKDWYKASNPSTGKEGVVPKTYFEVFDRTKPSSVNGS

| Binder | SPOT intensity [1] | SPOT intensity [2] | SPOT intensity [3] | SPOT intensity [4] | SPOT intensity [5] | SPOT intensity [6] | SPOT intensity [7] | SPOT intensity [8] | SPOT intensity [9] | SPOT intensity [10] | SPOT intensity [11] | SPOT intensity [12] | SPOT intensity [13] | SPOT intensity [14] | SPOT intensity [15] | SPOT intensity [16] | SPOT intensity [17] | SPOT intensity [18] | SPOT intensity [19] | SPOT intensity [20] | also measured |
| --- | --- | --- | --- | --- | --- | --- | --- | --- | --- | --- | --- | --- | --- | --- | --- | --- | --- | --- | --- | --- | --- |
| NENKKLPPAPTVFGL | 0 | 0 | 25 | 2 | 0 | 0 | 0 | 9 | 1 | 0 | 1 | 0 | 2 | 927 | 0 | 1 | 2 | 9 | 0 | 4 | SPOT intensity [21]: 3; SPOT intensity [22]: 0; SPOT intensity [23]: 0; SPOT intensity [24]: 2; SPOT intensity [25]: 0; SPOT intensity [26]: 0; SPOT intensity [27]: 0 |
| AATTSTPPLPRRRAT | 31 | 1 | 5 | 1 | 0 | 0 | 103 | 109 | 1 | 2 | 877 | 0 | 0 | 38 | 2 | 0 | 2280 | 364 | 0 | 4 | SPOT intensity [21]: 0; SPOT intensity [22]: 1360; SPOT intensity [23]: 35; SPOT intensity [24]: 0; SPOT intensity [25]: 0; SPOT intensity [26]: 243; SPOT intensity [27]: 0 |
| EREKALPPIPFTTTL | 0 | 0 | 354 | 0 | 0 | 1 | 0 | 0 | 0 | 0 | 4 | 0 | 1 | 1480 | 1 | 0 | 2 | 12 | 0 | 0 | SPOT intensity [21]: 0; SPOT intensity [22]: 2; SPOT intensity [23]: 2; SPOT intensity [24]: 0; SPOT intensity [25]: 0; SPOT intensity [26]: 16; SPOT intensity [27]: 0 |

Further lines, with some results ahead:

| SPOT intensity [1] | SPOT intensity [2] | SPOT intensity [3] | SPOT intensity [4] | SPOT intensity [5] | SPOT intensity [6] | SPOT intensity [7] | SPOT intensity [8] | SPOT intensity [9] | SPOT intensity [10] | SPOT intensity [11] | SPOT intensity [12] | SPOT intensity [13] | SPOT intensity [14] | SPOT intensity [15] | SPOT intensity [16] | SPOT intensity [17] | SPOT intensity [18] | SPOT intensity [19] | SPOT intensity [20] | Binder | also measured |
| --- | --- | --- | --- | --- | --- | --- | --- | --- | --- | --- | --- | --- | --- | --- | --- | --- | --- | --- | --- | --- | --- |
| 0 | 0 | 2 | 0 | 0 | 0 | 0 | 0 | 0 | 0 | 6 | 0 | 0 | 1320 | 1 | 0 | 0 | 47 | 0 | 0 | DLFKPLPEPPTELGR | SPOT intensity [21]: 0; SPOT intensity [22]: 0; SPOT intensity [23]: 0; SPOT intensity [24]: 0; SPOT intensity [25]: 0; SPOT intensity [26]: 0; SPOT intensity [27]: 0 |
| 0 | 2 | 0 | 10 | 0 | 1 | 15 | 117 | 0 | 0 | 0 | 26 | 0 | 1070 | 0 | 21 | 0 | 8 | 0 | 15 | RRSKSLPITPKSIFN | SPOT intensity [21]: 0; SPOT intensity [22]: 0; SPOT intensity [23]: 4; SPOT intensity [24]: 0; SPOT intensity [25]: 0; SPOT intensity [26]: 0; SPOT intensity [27]: 0 |
| 0 | 0 | 1440 | 0 | 0 | 0 | 0 | 301 | 0 | 0 | 2 | 0 | 0 | 2240 | 59 | 0 | 0 | 688 | 2 | 0 | IVNKPLPPLPVAGSS | SPOT intensity [21]: 0; SPOT intensity [22]: 0; SPOT intensity [23]: 0; SPOT intensity [24]: 1; SPOT intensity [25]: 0; SPOT intensity [26]: 0; SPOT intensity [27]: 0 |
